“And” between values parts separate entries of the source, which are not always exact repeats. Equal entries are not always repeated.
Key:
human CCR7 [1] = target: T1, human CCR7 (human, UniProt P32248 25-378, sulfated tyrosine residues in position Y32 and Y41 (as the filing describes the N-terminal extracellular domain)); experiment: cell-based or functional assay
T1 sequence: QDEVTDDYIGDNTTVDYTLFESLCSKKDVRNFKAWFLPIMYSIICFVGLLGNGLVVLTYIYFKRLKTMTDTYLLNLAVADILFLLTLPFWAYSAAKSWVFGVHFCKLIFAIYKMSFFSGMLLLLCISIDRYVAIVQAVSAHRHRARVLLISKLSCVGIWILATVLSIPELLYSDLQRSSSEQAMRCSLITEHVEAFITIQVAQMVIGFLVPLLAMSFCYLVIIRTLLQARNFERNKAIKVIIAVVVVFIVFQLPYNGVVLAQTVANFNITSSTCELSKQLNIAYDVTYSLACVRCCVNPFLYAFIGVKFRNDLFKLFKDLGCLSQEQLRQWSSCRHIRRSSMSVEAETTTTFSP

sulfated antigen SYM1899 = target: T2, sulfated antigen SYM1899 (human, N-terminal pyroGlu; Z denotes sulfated Tyrosine (two Z in (pyroGlu)DEVTDDZIGDNTTVDZTLFESLCSKKDVRNK)); experiment: ELISA, SYM1899 coated on the plate, 4 parameter logistics curve fit
T2 construct: also called immunogen SYM1899; synthetic antigen SYM1899
T2 peptide: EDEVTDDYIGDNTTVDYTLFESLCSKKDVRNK
Protocol: SEQ ID NO: 76). 100 ng/well SYM1899 was immobilized onto 96 well Maxisorp plates in coating buffer. Coating buffer was removed and 200 μl/well of block solution (3% w/v semi skim milk powder, PBS) was added and agitated 2 hours room temperature. Plate was washed six times with PBS-T (0.001% v/v Tween 20). […] 100 μl per well in triplicate of each antibody dilution was added to the plate in addition to a negative control of PBS and incubated 2 hours at room temperature with agitation. Plate was washed six times with PBS-T. 100 μl/well goat anti human HRP (Fc specific) (1:60,000 in PBS) was added and plates incubated for one hour agitated at room temperature. Plate was washed six times with PBS-T and once in PBS. 100 μl/well of TMB substrate solution was added and incubated at 37° C. for 10 minutes. 50 μl 1M HCl was added per well and the plate immediately read at 450 nm on a Biolise plate reader.

human CCR7 [2] = target: T1, human CCR7; experiment: FACS (flow cytometry) on CLL and TPLL cells
Protocol: Binding of antibodies to membrane expressed CCR7 was determined by Fluorescence-activated cell sorting (FACS) by flow cytometry on three different chronic lymphocytic leukemia (CLL) samples and on three different T-cell Prolymphocytic leukaemia (TPLL) samples (data not shown). Appropriate controls (human isotype controls) were included to easily calculate the percentage of positive cells and/or the relative median fluorescence intensity (RMFI), obtained from the ratio MFI (sample)/MFI (control).

B1: humanized anti-CCR7 mAb 650 variant HC1 LC1 (antibody, V domains shown)
VH: EVQLLESGGGFVKPGGSLKLSCVVSGLTFRDFAMSWVRQTPEKRLVWVATISSGGFYTYYPDSVKGRFTISRDNVRNILYLQMSSLRSEDTAVYYCVRRAYRYDGTGDYSALDYWGTGTTVTVSS
VL: DIQMTQSPSSLSASVGDRVTITCRASQDIGPSLNWYQQKPGKAPKRLIYATSNLDSGVPSRFSGSGSGTDFTLTISSLQPEDFATYYCLQFASSPLTFGQGTKVEIK
- IC50 of inhibition of CCL19 induced CCR7 receptor internalization (PathHunter active internalization assay) (human CCR7 [1]): 0.415 µg/ml and 2.8 nM
- IC50 of inhibition of CCL19 induced cAMP signalling (cAMP Secondary Messenger Pathway assay) (human CCR7 [1]): 1.61 µg/ml and 10.7 nM
- IC50 of inhibition of CCL19 induced β-arrestin recruitment (PathHunter) (human CCR7 [1]): 9.56 µg/ml and 63.7 nM

B2: humanized anti-CCR7 mAb 650 variant HC3 LC3 (antibody, V domains shown)
VH: EVQLVESGGGLVQPGGSLRLSCAVSGLTFRDFAMSWVRQAPGKGLEWVSTISSGGFYTYYPDSVKGRFTISRDNSKNTLYLQMNSLRAEDTASYYCVRRAYRYDGTGDYSALDYWGQGTLVTVSS
VL: DIQMTQSPSSLSASVGDRVTITCRASQDIGPSLNWLQQKPGKAPKSLIYATSNLDSGVPSKFSGSGSGTDFSLTISSLQPEDFATYYCLQFASSPLTFGQGTRLEIK
notes: Human Fc; See the note on VK3 under HC1 LC3
- EC50 (sulfated antigen SYM1899): > 100 nM

B3: control antibody 11-x (antibody, human IgG1, V domains shown)
VH: EVQLLESGGGFVKPGGSLKLSCVVSGLTFRDFAMSWVRQTPEKRLVWVATISSGGFYTYYPDSVKGRFTISRDNVRNILYLQMSSLRSEDTAVYYCARATTVVGTDFDYWGTGTTVTVSS
VL: DIQMTQSPSSLSASVGDRVTITCRASQDIGPSLNWYQQKPGKAPKRLIYATSNLDSGVPSRFSGSGSGTDFTLTISSLQPEDFATYYCLQFASSPLTFGQGTKVEIK
- binding result (human CCR7 [2]): no binding

B4: humanized anti-CCR7 mAb 650 variant HC1 LC3 (antibody, V domains shown)
VH: EVQLLESGGGFVKPGGSLKLSCVVSGLTFRDFAMSWVRQTPEKRLVWVATISSGGFYTYYPDSVKGRFTISRDNVRNILYLQMSSLRSEDTAVYYCVRRAYRYDGTGDYSALDYWGTGTTVTVSS
VL: DIQMTQSPSSLSASVGDRVTITCRASQDIGPSLNWLQQKPGKAPKSLIYATSNLDSGVPSKFSGSGSGTDFSLTISSLQPEDFATYYCLQFASSPLTFGQGTRLEIK
notes: Human Fc
- EC50 (sulfated antigen SYM1899): > 100 nM

B5: humanized anti-CCR7 mAb 650 variant HC2 LC3 (antibody, V domains shown)
VH: EVQLVESGGGLVKPGGSLRLSCAAPGLTFRDFAMSWVRQAPGKGLEWVSTISSGGFYTYYPDSVKGRFTISRDNAANSLYLQMNSLRAEDTAVYYCVRRAYRYDGTGDYSALDYWGQGTLVTVSS
VL: DIQMTQSPSSLSASVGDRVTITCRASQDIGPSLNWLQQKPGKAPKSLIYATSNLDSGVPSKFSGSGSGTDFSLTISSLQPEDFATYYCLQFASSPLTFGQGTRLEIK
notes: as for B2
- EC50 (sulfated antigen SYM1899): > 100 nM

From patent publication US20250092147A1 (PEPMAB B V, published 2025)
